# Reference: paper doi:10.1101/569251 (bioRxiv, 2019)
# B1: SEPT7 (residues 29-437) with N-terminal His-tag (domain or fragment, human, UniProt Q16181-1 29-437, looked up)
# chain: GYVGFANLPNQVYRKSVKRGFEFTLMVVGESGLGKSTLINSLFLTDLYSPEYPGPSHRIKKTVQVEQSKVLIKEGGVQLLLTIVDTPGFGDAVDNSNCWQPVIDYIDSKFEDYLNAESRVNRRQMPDNRVQCCLYFIAPSGHGLKPLDIEFMKRLHEKVNIIPLIAKADTLTPEECQQFKKQIMKEIQEHKIKIYEFPETDDEEENKLVKKIKDRLPLAVVGSNTIIEVNGKRVRGRQYPWGVAEVENGEHCDFTILRNMLIRTHMQDLKDVTNNVHYENYRSRKLAAVTYNGVDNNKNKGQLTKSPLAQMEEERREHVAKMKKMEMEMEQVFEMKVKEKVQKLKDSEAELQRRHEQMKKNLEAQHKELEEKRRQFEDEKANWEAQQRILEQQNSSRTLEKNKKKGKIF
# Molecular target: the molecule itself
protein,measurement,value
B1,binding result,binds
